Here are results for 1 substance from US20160347814A1.

The target in this experiment is Inducible counterpart receptor for VSTM5 on anti-CD3 activated human CD4+ T cells. Nature of the experiment: FACS on anti-CD3 activated primary human CD4+ T cells, 100 ug/ml; background of the isotype control on the whole cells.

“Synagis (Palivizumab, anti-RSV humanized IgG1 mAb) (antibody)” came in with a gMFI of 0.335.
